Laboratory results published in PMC11077089, “Molecular basis of A. thaliana KEOPS complex in biosynthesizing tRNA t^6A” (Nucleic Acids Research, 2024).

Substrate: Nc1ncnc2c1ncn2[C@@H]1O[C@H](COP(=O)(O)OP(=O)(O)OP(=O)(O)O)[C@@H](O)[C@H]1O
Experiment: NADH-coupled ATPase assay (pyruvate kinase / lactate dehydrogenase), Michaelis-Menten
Format: biochemical, Arabidopsis thaliana
Conditions: no tRNA, 2 μM protein, 0–50 μM ATP, 5 mM MgCl2, pH 7.5, 25°C, BUD32 site

B1: AtKEOPS (wild-type KEOPS dimer, P2K2B2C2) (Arabidopsis thaliana) (protein)
chain: MDCEENVRDESLVLIKQGAEARVFESTFAGRRSIVKERFSKKYRHPILDAKLTLKRLNAEARCMTKARKLGVCTPVLYAVDTLLHSLTLEYIEGVSVKDIFLEFGTNGVVEERLDDVAAQIGAAIAKLHDGGLAHGDLTTSNMLVRSGTNQLVLIDFGLSVTSTLPEDKAVDLYVLERALLSMHSSCGNVMDRILTAYRKSSKQWSATFNKLAQVRQRGRKRTMIG
notes: reconstituted from KAE1-PCC1-6His and BUD32-CGI121-6His expressed in E. coli; SEC ~200 kDa dimer; some N-terminal KAE1 degradation; with tRNA N6-adenosine threonylcarbamoyltransferase KAE1; EKC/KEOPS complex subunit CGI121; EKC/KEOPS complex subunit PCC1
Km: 0.95 ± 0.053 µM | kcat: 0.019 ± 0.00073 s^–1
